The target in assay [1] is T1, Recombinant human PD-1 (Beijing Sino Biological Inc., Catalog No. 10377-H08H) (human, UniProt Q15116 25-167). Put plainly: ELISA; panel A.
Assay [2] deals with T1, Recombinant human PD-1 (Beijing Sino …). The experiment in a line: ELISA; panel B. (In general: ELISA stands for enzyme-linked immunosorbent assay.)

T1 sequence (Q15116 25-167): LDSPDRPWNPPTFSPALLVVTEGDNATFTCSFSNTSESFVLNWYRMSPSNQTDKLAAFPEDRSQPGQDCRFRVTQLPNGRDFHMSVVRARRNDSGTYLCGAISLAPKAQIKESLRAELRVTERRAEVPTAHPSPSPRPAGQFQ

B1: PD-1 (BJHM) monoclonal antibody (antibody, V domains shown)
VH: EVNLVESGGGLVQPGGSLRLSCAASGFTFSSYGMSWVRQAPGKGLEWVASISGGGRYTYYPDSMKGRFTISRDNSKNNLYLQMNSLRAEDTAVYYCVYEYFYTMDYWGQGTLVTVSS
VL: DIVLTQSPATLSLSPGERATLSCRASQSISNNLHWYQQKPGQAPRLLIRFASQSISGIPARFSGSGSGTDFTLTISSLEPEDFAVYFCQQSDNWPLTFGGGTKVEIK
For orientation: EC50 means the concentration giving half of the maximal effect. For B1, the values for the EC50 in assay [1] and in assay [2] were 0.061 nM and 0.04 nM, respectively.

For the origin of these results see patent US20210040193A1 (published 2021).
